Experimental data published in patent US20120027677A1.

Molecular target: PrP^Sc, pathogenic form of the human prion protein (from CJD brain homogenate) (human) (UniProt P04156)

In the case of 3F4 antibody, the ave (RLU), vCJD BH is reported as 56.3 RLU.
